The source of these data is PMC7022712, “Functional Analysis of DNMT3A DNA Methyltransferase Mutations Reported in Patients with Acute Myeloid Leukemia”.

The target in one data set is Dnmt3a-CD F162V (Mus musculus, UniProt O88508 608-908, F748V). The experiment in a line: fluorescence polarization; 100 uM AdoHcy; no plateau reached; Buffer A: 20 mM HEPES pH 7.5, 100 mM KCl, 1 mM EDTA, 1 mM DTT, 100 uM AdoHcy, 25 C; DNA 100 nM (Methods) or 10 nM (Figure 6 legend); Hill fit. As to conditions: protein: recombinant; tags: C-terminal His6; chain copies: 2; label: 5'-FAM on strand 1 via aminohexyl linker; blunt. (Polarisation of emitted light reports the rotation of a fluorescent probe.)
Dnmt3a-CD F162V, sequence (O88508 608-908 F748V): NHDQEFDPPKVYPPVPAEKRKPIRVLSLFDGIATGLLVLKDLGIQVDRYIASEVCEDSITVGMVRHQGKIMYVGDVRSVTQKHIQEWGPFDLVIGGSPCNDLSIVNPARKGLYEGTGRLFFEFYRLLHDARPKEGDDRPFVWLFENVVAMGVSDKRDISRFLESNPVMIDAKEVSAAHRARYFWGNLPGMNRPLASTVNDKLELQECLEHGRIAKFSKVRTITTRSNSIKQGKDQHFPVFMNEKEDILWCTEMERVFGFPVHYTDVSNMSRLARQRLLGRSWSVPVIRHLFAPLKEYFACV

The next data set deals with Dnmt3a-CD S124C (Mus musculus, UniProt O88508 608-908, S710C). Kind of data set: fluorescence polarization; 100 uM AdoHcy; Buffer A: 20 mM HEPES pH 7.5, 100 mM KCl, 1 mM EDTA, 1 mM DTT, 100 uM AdoHcy, 25 C; DNA 100 nM (Methods) or 10 nM (Figure 6 legend); Hill fit. The note with it: protein: recombinant; tags: C-terminal His6; chain copies: 2; label: 5'-FAM on strand 1 via aminohexyl linker; blunt.
Dnmt3a-CD S124C, sequence (O88508 608-908 S710C): as the sequence (O88508 608-908 F748V) above, with S103C, V141F counted along it

The target in a further data set is Dnmt3a-CD R146H (Mus musculus, UniProt O88508 608-908, R732H). The data set is described as above. As to conditions: protein: recombinant; tags: C-terminal His6; chain copies: 2; label: 5'-FAM on strand 1 via aminohexyl linker; blunt.
Dnmt3a-CD R146H, sequence (O88508 608-908 R732H): as the sequence (O88508 608-908 F748V) above, with R125H, V141F counted along it
The next data set deals with Dnmt3a-CD WT (Mus musculus, UniProt O88508 608-908). The description is as above. The note with it: protein: recombinant; tags: C-terminal His6 (Results); chain copies: 2; label: 5'-FAM on strand 1 via aminohexyl linker; blunt.
Dnmt3a-CD WT, sequence (O88508 608-908): as the sequence (O88508 608-908 F748V) above, with V141F counted along it
The target of a further data set is Dnmt3a-CD R45W (Mus musculus, UniProt O88508 608-908, R631W). The data set is described as above. The note with it: protein: recombinant; tags: C-terminal His6; chain copies: 2; label: 5'-FAM on strand 1 via aminohexyl linker; blunt.
Dnmt3a-CD R45W, sequence (O88508 608-908 R631W): as the sequence (O88508 608-908 F748V) above, with R24W, V141F counted along it

B1: fCG/CG (dsDNA)
DNA 1: CTGAATACTACTTGCGCTCTCTAACCTGAT
DNA 2: ATCAGGTTAGAGAGCGCAAGTAGTATTCAG
By Kd is commonly meant the constant that tells how readily two partners part at equilibrium. Turning to B1, the equilibrium dissociation constant (Kd) in the data set with Dnmt3a-CD F162V is 232 ± 32 nM; in the data set with Dnmt3a-CD S124C it was 127 ± 44 nM; with Dnmt3a-CD WT, 77 ± 6 nM. The binding result in the data set with Dnmt3a-CD R146H and with Dnmt3a-CD R45W was “no binding” each time.
